IntAct's records for PubMed 27462807

Legend:
[1] = target: tp53b_human TP53BP1 (UniProt Q12888)
[2] = target: tp53b_human TP53BP1 (UniProt Q12888); remark: listed apart in the source

tp53b_human TP53BP1, sequence (Q12888 whole entry): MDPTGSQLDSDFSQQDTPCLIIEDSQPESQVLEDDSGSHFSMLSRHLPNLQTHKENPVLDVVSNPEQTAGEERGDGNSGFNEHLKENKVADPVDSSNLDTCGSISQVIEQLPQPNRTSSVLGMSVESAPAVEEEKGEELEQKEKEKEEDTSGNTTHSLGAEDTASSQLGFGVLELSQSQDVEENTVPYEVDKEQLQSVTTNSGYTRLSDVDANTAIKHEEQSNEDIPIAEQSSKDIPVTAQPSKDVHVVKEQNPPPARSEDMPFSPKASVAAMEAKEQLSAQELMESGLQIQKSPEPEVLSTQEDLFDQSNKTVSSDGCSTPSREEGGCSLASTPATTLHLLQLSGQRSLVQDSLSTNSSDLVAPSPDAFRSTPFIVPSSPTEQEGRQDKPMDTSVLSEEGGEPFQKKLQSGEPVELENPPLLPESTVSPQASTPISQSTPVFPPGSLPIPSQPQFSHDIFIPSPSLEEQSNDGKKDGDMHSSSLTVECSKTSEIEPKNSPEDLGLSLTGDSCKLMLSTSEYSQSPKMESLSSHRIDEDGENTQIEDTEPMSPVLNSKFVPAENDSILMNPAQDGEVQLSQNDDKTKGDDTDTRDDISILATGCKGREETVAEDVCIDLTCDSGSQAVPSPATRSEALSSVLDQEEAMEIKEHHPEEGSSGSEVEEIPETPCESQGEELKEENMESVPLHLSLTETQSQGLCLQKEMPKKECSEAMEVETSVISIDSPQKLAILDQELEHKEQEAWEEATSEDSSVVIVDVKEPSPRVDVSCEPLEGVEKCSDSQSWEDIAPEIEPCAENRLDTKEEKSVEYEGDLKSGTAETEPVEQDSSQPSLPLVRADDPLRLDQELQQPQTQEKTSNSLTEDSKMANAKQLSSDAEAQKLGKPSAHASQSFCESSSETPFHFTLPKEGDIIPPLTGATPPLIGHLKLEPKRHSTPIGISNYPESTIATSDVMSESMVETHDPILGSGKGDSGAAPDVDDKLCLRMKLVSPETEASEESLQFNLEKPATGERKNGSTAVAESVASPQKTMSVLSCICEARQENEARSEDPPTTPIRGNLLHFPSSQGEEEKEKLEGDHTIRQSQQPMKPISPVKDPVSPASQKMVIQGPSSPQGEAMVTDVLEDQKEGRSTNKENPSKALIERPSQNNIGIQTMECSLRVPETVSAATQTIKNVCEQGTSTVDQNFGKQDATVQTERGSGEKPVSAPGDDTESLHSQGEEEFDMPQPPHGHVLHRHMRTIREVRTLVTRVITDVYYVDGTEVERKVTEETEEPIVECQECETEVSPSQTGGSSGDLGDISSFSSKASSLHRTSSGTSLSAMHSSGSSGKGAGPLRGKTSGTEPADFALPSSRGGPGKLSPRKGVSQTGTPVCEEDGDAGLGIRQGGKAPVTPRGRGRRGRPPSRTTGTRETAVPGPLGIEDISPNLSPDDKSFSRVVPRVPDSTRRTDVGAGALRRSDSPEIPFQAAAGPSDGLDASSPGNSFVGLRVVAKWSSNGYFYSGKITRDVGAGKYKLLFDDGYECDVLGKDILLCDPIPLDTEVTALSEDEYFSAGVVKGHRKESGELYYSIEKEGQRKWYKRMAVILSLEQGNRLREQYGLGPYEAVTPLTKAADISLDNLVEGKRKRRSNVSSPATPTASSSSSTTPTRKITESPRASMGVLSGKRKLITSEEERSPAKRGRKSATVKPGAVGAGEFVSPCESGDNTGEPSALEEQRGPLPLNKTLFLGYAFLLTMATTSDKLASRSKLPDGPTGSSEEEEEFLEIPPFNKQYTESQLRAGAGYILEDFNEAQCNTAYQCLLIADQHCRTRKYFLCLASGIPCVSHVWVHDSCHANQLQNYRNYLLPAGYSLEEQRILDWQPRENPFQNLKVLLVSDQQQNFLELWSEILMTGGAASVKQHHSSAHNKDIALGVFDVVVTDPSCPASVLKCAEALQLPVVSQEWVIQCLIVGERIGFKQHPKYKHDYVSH

effect of a mutation on the interaction [1] | effect of a mutation on the interaction [2] | Substance
with no effect |  | Histone H2B type 1-C/E/F/G/I (Homo sapiens) (from UniProt P62807) E106C
 | with no effect | Histone H2B type 1-C/E/F/G/I (Homo sapiens) (from UniProt P62807) N85C
